For the experiment, the target named is LRP1 on wild-type CHO-K1 cells. The experiment is described as follows: cell-based or functional assay.

“mini-RAPc (Hep1) combined with equimolar streptavidin-saporin conjugate (ZAP) (from UniProt P22629 37-163)” showed a reduction of viable cell number (MTT assay, 100 nM, 48 hours) of 40%.
